Measured values published in patent US20250243262A1 (AstraZeneca / MedImmune, published 2025).

Target: PcrV on live P. aeruginosa (type III secretion system of the infecting bacteria) (Pseudomonas aeruginosa)
Test: cell-based or functional assay

B1: V2L2 anti-PcrV monoclonal antibody (antibody, IgG1, V domains shown)
VH: EMQLLESGGGLVQPGGSLRLSCAASGFTFSSYAMNWVRQAPGEGLEWVSAITISGITAYYTDSVKGRFTISRDNSKNTLYLQMNSLRAGDTAVYYCAKEEFLPGTHYYYGMDVWGQGTTVTVSS
VL: AIQMTQSPSSLSASVGDRVTITCRASQGIRNDLGWYQQKPGKAPKLVIYSASTLQSGVPSRFSGSGSGTDFTLSISSLQPDDFATYYCLQDYNYPWTFGQGTKVEIK
inhibition of cytotoxicity, IC50 against that of mAb166: 28 fold
percent inhibition of cytotoxicity (lysis of A549 cells by P. aeruginosa 6077, LDH release), IC50: 0.1 µg/mL
prevention of RBC lysis, IC50 against that of mAb166: 10 fold
prevention of lysis of rabbit RBCs by P. aeruginosa 6077, IC50: 0.37 µg/mL
